Patent US20160130327A1

Key:
[1] = target: revertant virus (AD169 CMV with the pentameric gH complex restored); assay: cell-based or functional assay
[2] = target: revertant virus (AD169 CMV with the pentameric gH complex restored); assay: antibody-titration EIA, coated revertant virions

## human polyclonal CMV hyperimmune IgG (HIG, CytoGam) (antibody)
[1]
  EC50 neutralizing (ARPE-19 cells): 1 µg/mL
[2]
  EC50: 2 µg/mL
